Holding throughout (conditions): remark: other sources report otherwise
Assay [1] deals with T1, recombinant homotrimeric HA, A/northern shoveler/California/HKWF115/07 (Influenza A virus A/northern shoveler/California/HKWF115/2007 (H6N1)). Description: trimeric HA microarray, transfection set 2.
Assay [2] addresses T2, recombinant homotrimeric HA, A/Hong Kong/1073/99 H9N2 (Influenza A virus A/Hong Kong/1073/99 (H9N2)). Description: trimeric HA microarray, transfection set 2.
For assay [3], the target named is T1, recombinant homotrimeric HA, A/northern …. Description: trimeric HA microarray, transfection set 3.
The target of assay [4] is T2, recombinant homotrimeric HA, A/Hong …. Description: trimeric HA microarray, transfection set 3.
The target of assay [5] is T3, recombinant homotrimeric HA, A/Anhui/1/05 H5N1 (Influenza A virus A/Anhui/1/05 (H5N1)). Description: trimeric HA microarray, transfection set 2.
Assay [6] deals with T4, recombinant homotrimeric HA, A/duck/Yangzhou/02/05 H8N4 (Influenza A virus A/duck/Yangzhou/02/2005 (H8N4)). Description: trimeric HA microarray, transfection set 2.
The target in assay [7] is T5, recombinant homotrimeric HA, A/Wisconsin/67/05 H3N2 (Influenza A virus A/Wisconsin/67/05 (H3N2)). Description: trimeric HA microarray, transfection set 2.
In assay [8] the target is T6, recombinant homotrimeric HA, A/Netherlands/219/03 H7N7 (Influenza A virus A/Netherlands/219/03 (H7N7)). Description: trimeric HA microarray, transfection set 2.
Assay [9] concerns the target T3, recombinant homotrimeric HA, …. Description: trimeric HA microarray, transfection set 3.
The target in assay [10] is T4, recombinant homotrimeric HA, …. Description: trimeric HA microarray, transfection set 3.
In assay [11] the target is T5, recombinant homotrimeric HA, …. Description: trimeric HA microarray, transfection set 3.
Assay [12] deals with T6, recombinant homotrimeric HA, …. Description: trimeric HA microarray, transfection set 3.

B1: TCN-523 (5248_A17) (antibody, V domains shown)
VH: QVQLVQSGAEVKKPGSSVKVSCKASGGSFSNYAFSWVRQAPGQGLEWMGGTIPLLGTTNYAQKFQGRVTISADQFTSTAYMELGSLRSEDTAVYYCTRRKMTTAFDSWGQGTLVTVSS
VL: QPVLTQPPSASASLGASVTLTCTLSSAYSNYKVDWYQQRPGKGPRFVMRVGTGGIVGSKGDGIPDRFSVLGSGLNRYLTIKNIQEEDESDYHCGADHGSGSNFVSPYVFGGGTKLTVL
Turning to B1, the Trimeric HA Binding RLU in [1] was 21200 RLU; in assay [2] it was 31300 RLU; in [3], 29400 RLU; in [4], 24200 RLU.

B2: TCN-504 (3251_K17) (antibody, V domains shown)
VH: QVQLQESGPGLVKPSETLSLTCAVSGVSISNIDFYWGWIRQPPGKGLEWIGNIYYTGITFYNPSLSSRVAISIDTSKNQFSLTLTSVTAADTAMYYCARHYGDSEAINDAFDIWGQGTMLTVSS
VL: EIVMTQSPATLSVSPGERATLSCRASQSVGNSLAWYQQRPGQAPRLLIYGASTRATGIPPRFSGSGSGTEFTLTISSLQTEDFAVYYCQQYINWRPLSFGGGTKVEIK
On to B2, for which the Trimeric HA Binding RLU in assay [5] stood at 31000 RLU; in assay [6], 17800 RLU; in [7], 21600 RLU; in assay [8], 19300 RLU; in [9] it was 30000 RLU; in assay [10] it was 19600 RLU. Further, the Trimeric HA Binding RLU turned out to be 21400 RLU in [11] and 19600 RLU in assay [12].

Source of the values: patent US20120207760A1.
